Test results taken from paper PMC3858845 (Molecular bioSystems, 2014).
Each block holds one molecule with its values, some of them ahead of it.

Tests used:
[1] = target: hmIYD (Hydra vulgaris, UniProt T2MBC4); assay: FMN occupancy of purified enzyme from A450 and A280; assay type: binding; conditions: FMN bound as isolated; partly purified enzyme
[2] = target: dpIYD (Daphnia pulex, UniProt E9FR69); assay: as above; assay type: binding; conditions: FMN bound as isolated
[3] = target: nvIYD (Nematostella vectensis, UniProt A7S5D9); assay: as above; assay type: binding; conditions: FMN bound as isolated
[4] = target: amIYD (Apis mellifera, UniProt A0A7M7RAX7); assay: as above; assay type: binding; conditions: FMN bound as isolated
[5] = target: bfIYD (Branchiostoma floridae, UniProt C3Y0Q6); assay: as above; assay type: binding; conditions: FMN bound as isolated
[6] = target: T1, drIYD (Danio rerio, UniProt E7FDV5); assay: as above; assay type: binding; conditions: FMN bound as isolated
T1 sequence (E7FDV5 24-295 limits assumed): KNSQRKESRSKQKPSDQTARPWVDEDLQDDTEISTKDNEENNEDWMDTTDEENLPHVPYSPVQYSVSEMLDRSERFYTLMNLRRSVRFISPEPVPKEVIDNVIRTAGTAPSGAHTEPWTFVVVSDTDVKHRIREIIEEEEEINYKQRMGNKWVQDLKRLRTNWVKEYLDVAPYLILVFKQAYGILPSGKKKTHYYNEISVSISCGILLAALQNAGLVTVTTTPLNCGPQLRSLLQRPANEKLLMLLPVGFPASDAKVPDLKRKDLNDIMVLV

[7] = target: hhIYD (Haliscomenobacter hydrossis, UniProt F4KU78); assay: as above; assay type: binding; conditions: FMN bound as isolated
[8] = substrate: N[C@@H](Cc1cc(I)c(O)c(I)c1)C(=O)O; assay: purified protein; assay type: biochemical, Nematostella vectensis; conditions: labelled compound; excess FMN present in assay
[9] = substrate: N[C@@H](Cc1cc(I)c(O)c(I)c1)C(=O)O; assay: purified protein; assay type: biochemical, Danio rerio; conditions: labelled compound; excess FMN present in assay
[10] = substrate: N[C@@H](Cc1cc(I)c(O)c(I)c1)C(=O)O; assay: purified protein; assay type: biochemical, Daphnia pulex; conditions: labelled compound; excess FMN present in assay
[11] = substrate: N[C@@H](Cc1cc(I)c(O)c(I)c1)C(=O)O; assay: purified protein; assay type: biochemical, Haliscomenobacter hydrossis; conditions: labelled compound; excess FMN present in assay

Sequence of hmIYD (T2MBC4 43-272): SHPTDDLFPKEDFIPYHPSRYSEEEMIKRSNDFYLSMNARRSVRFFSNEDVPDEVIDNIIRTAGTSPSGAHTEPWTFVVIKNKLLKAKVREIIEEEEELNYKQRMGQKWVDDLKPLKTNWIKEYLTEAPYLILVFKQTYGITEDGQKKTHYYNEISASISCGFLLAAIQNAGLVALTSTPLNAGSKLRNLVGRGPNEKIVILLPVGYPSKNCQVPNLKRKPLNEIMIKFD

FMN occupancy [1]: 59%
FMN occupancy [2]: 95%
FMN occupancy [3]: 55%
FMN occupancy [4]: 95%
FMN occupancy [5]: 95%
FMN occupancy [6]: 95%
FMN occupancy [7]: 95%
Molecule: Cc1cc2nc3c(=O)[nH]c(=O)nc-3n(C[C@H](O)[C@H](O)[C@H](O)COP(=O)(O)O)c2cc1C [FMN]

B1: nvIYD (Nematostella vectensis) (protein)
chain: MEVFKALFKSKEAYTVDVDPMKDSDEHDLPRDPLSIRVTGEEEVNHIPYPYFDEIPTEEEMKKKSAEFYKSMKKRRTVRKISSEPVPLEVIENIVRVAGTSPSGAHTEPWTYVVIRDPDLKKQIKEVVEEEEQLNYARRMGEKWVQDLSILKTTWSKPYIETAPYLILIFKQVYGIKPDGDKKVHYYNEISVCISCGLLLAAIQNAGLVTVTSTPMNAGPRLRVLLNRPQNEKLIMLLPVGYPAKDAEVPNLTRKPLEEIMVLK
Km [8]: 105 ± 26 µM
kcat [8]: 0.533 ± 0.0667 s⁻¹
kcat/Km [8]: 5000 ± 1330 M⁻¹ s⁻¹

B2: drIYD (Danio rerio) (protein)
chain: KNSQRKESRSKQKPSDQTARPWVDEDLQDDTEISTKDNEENNEDWMDTTDEENLPHVPYSPVQYSVSEMLDRSERFYTLMNLRRSVRFISPEPVPKEVIDNVIRTAGTAPSGAHTEPWTFVVVSDTDVKHRIREIIEEEEEINYKQRMGNKWVQDLKRLRTNWVKEYLDVAPYLILVFKQAYGILPSGKKKTHYYNEISVSISCGILLAALQNAGLVTVTTTPLNCGPQLRSLLQRPANEKLLMLLPVGFPASDAKVPDLKRKDLNDIMVLV
Km [9]: 8 ± 1 µM
kcat [9]: 0.0683 ± 0.00333 s⁻¹
kcat/Km [9]: 8500 ± 1170 M⁻¹ s⁻¹

B3: dpIYD (Daphnia pulex) (protein)
chain: VKRESAIEQINEIEDDDEQSLEDQDVLPILFQYEKPSEADSIRRSEEFYRRMNQRRSVREISSDPVALEVIENIIKTGGTSPSGAHTEPWTFVVVSNLEMKQQIRQIIEAEEEINYKQRMGDVWVQDLQPVGTTWVKEYLTEAPWLILIFKQVHGFKRNGQKKIHYYNEISVSIATGFLLAAIQEAGLVTVTTTPLNCGPSIRVLLGRPVNEKLLLLLPVGYPKVGATVPDFKRKPLHDIMVHYQ
Km [10]: 7 ± 1 µM
kcat [10]: 0.293 ± 0.0133 s⁻¹
kcat/Km [10]: 41700 ± 6670 M⁻¹ s⁻¹

B4: hhIYD (Haliscomenobacter hydrossis DSM 1100) (protein)
chain: MKQKPAFIPYAGAQFEPEEMLSKSAEYYQFMDHRRTVREFSNRAIPLEVIENIVMTASTAPSGAHKQPWTFVVVSDPQIKAKIRQAAEKEEFESYNGRMSNEWLEDLQPFGTDWHKPFLEIAPYLIVVFRKAYDVLPDGTQRKNYYVQESVGIACGFLLAAIHQAGLVALTHTPSPMNFLQKILQRPENERPFLLVPVGYPAEGAMVPDLQRKDKAAVMVVY
Km [11]: 6.6 ± 0.9 µM
kcat [11]: 0.09 ± 0.005 s⁻¹
kcat/Km [11]: 13300 ± 1670 M⁻¹ s⁻¹
